Test results: the supplement of paper PMC7877785
± gives the uncertainty stated by the source.

Test: self-splicing fitness, log relative to wild type (ln ratio); higher = more splicing; Tetrahymena group I intron in knt gene, E. coli kanamycin selection, DiMSum; sequences stand for … in CUCUCU…GGAGGGAAAAGUUAUCAGGCAUGCACCUGGUAGCUAGUCUUUAAACCAAUAGAUUGCAUCGGUUUAAAAGGCAAGACCGUCAAAUUGCGGGAAAGGGGUCAACAGCCGUUCAGUACCAAGUCUCAGGGGAAACUUUGAGAUGGCCUUGCAAAGGGUAUGGUAAUAAGCUGACGGACAUGGUCCUAACCACGCAGCCAAGUCCUAAGUCAACAGAUCUUCUGUUGAUAUGGAUGCAGUUCACAGACUAAAUGUCGGUCGGGGAAGAUGUAUUCUUCUCAUAAGAUAUAGUCGGACCUCUCCUUAAUGGGAGCUAGCGGAUGAAGUGAUGCAACACUGGAGCCGCUGGGAACUAAUUUGUAUGCGAAAGUAUAUUGAUUAGUUUUGGAGUACUCGUGGUCG
Procedure, shortened: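 Six replicate transformations of E. coli BL21(DE3) with a pET-22b(+) library were grown overnight at 37°C or 30°C. The library randomised all eight P1ex-region intron nucleotides, the intron lying in the knt kanamycin-resistance gene, and plates were LB agar with or without 25 μg/mL kanamycin plus 100 μg/mL carbenicillin, 50 μM IPTG and 0.2% rhamnose. Pooled colonies were amplicon-sequenced on an Illumina HiSeq 2500, and fitness is the DiMSum error-weighted combination of wild-type-normalised replicate fold changes, kanamycin versus none.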

Sequence	self-splicing fitness (ln) (37 °C)	self-splicing fitness (ln) (30 °C)
AAAGAGCAAUAUUACGGUUC	-2.82 ± 0.36	–
UAUGAGCAAUAUUACGGACU	-2.46 ± 0.26	-3.55 ± 0.4
ACGCAGCAAUAUUACGAUAA	-1.95 ± 0.15	-2.84 ± 0.19
AAACAGCAAUAUUACGCUCC	-0.165 ± 0.13	-1.21 ± 0.14
GGGGAGCAAUAUUACGUGCU	-2.14 ± 0.33	-1.81 ± 0.16
CUAGAGCAAUAUUACGACCA	-1.15 ± 0.28	-2.61 ± 0.23
AUUUAGCAAUAUUACGUGCA	-0.306 ± 0.16	-1.05 ± 0.11
CGUAAGCAAUAUUACGACGG	-0.0967 ± 0.082	0.0203 ± 0.061
UUAGAGCAAUAUUACGAGUG	-1.53 ± 0.13	-3.12 ± 0.16
AAUCAGCAAUAUUACGCUUU	0.378 ± 0.1	-0.193 ± 0.067
AUACAGCAAUAUUACGGGCG	-1.18 ± 0.11	-1.25 ± 0.077
CAAGAGCAAUAUUACGUUUG	-2.37 ± 0.24	-2.75 ± 0.21
CAGGAGCAAUAUUACGGACU	-1.75 ± 0.3	-1.86 ± 0.14
UCGGAGCAAUAUUACGGGAU	-2.81 ± 0.38	-3.48 ± 0.25
UCCCAGCAAUAUUACGCACC	-1.21 ± 0.35	–
CGACAGCAAUAUUACGUGGU	-3.34 ± 0.17	-3.79 ± 0.18
AAUAAGCAAUAUUACGCUUA	-1.74 ± 0.22	-3.19 ± 0.26
ACGCAGCAAUAUUACGUCAU	-1.52 ± 0.11	-3.44 ± 0.12
UGGGAGCAAUAUUACGCAUG	-0.201 ± 0.22	-3.28 ± 0.35
CGGAAGCAAUAUUACGUCGG	0.0281 ± 0.099	-0.77 ± 0.064

Sequence	self-splicing fitness (ln) (37 °C)	self-splicing fitness (ln) (30 °C)
CUUAAGCAAUAUUACGUGGC	0.00177 ± 0.26	–
CGGGAGCAAUAUUACGCAUA	-1.96 ± 0.35	-2.61 ± 0.37
GAGCAGCAAUAUUACGAUAG	-3.14 ± 0.24	-3.7 ± 0.29
CGGAAGCAAUAUUACGACCC	-0.781 ± 0.33	-0.496 ± 0.27
UGUGAGCAAUAUUACGCCGC	-1.2 ± 0.48	-2.82 ± 0.34
AUUAAGCAAUAUUACGGCGU	0.712 ± 0.097	-0.179 ± 0.073
UGUAAGCAAUAUUACGGUUC	-2.92 ± 0.31	–
CUCAAGCAAUAUUACGUGAC	-0.92 ± 0.12	-2.46 ± 0.15
CUGAAGCAAUAUUACGAUUA	-2.84 ± 0.29	-2.6 ± 0.2
GUGAAGCAAUAUUACGUGGC	-2.41 ± 0.23	-2.6 ± 0.14
CCCUAGCAAUAUUACGGACA	-2.62 ± 0.24	-2.94 ± 0.32
CCAAAGCAAUAUUACGGGGC	-2.93 ± 0.27	-3.09 ± 0.19
CCGCAGCAAUAUUACGAUGA	–	-3.2 ± 0.38
UGCUAGCAAUAUUACGCCAU	-2.65 ± 0.35	-3.15 ± 0.28
UAUCAGCAAUAUUACGACGU	-0.199 ± 0.11	-1.22 ± 0.094
UCCGAGCAAUAUUACGGAAC	–	-2.97 ± 0.33
GCGUAGCAAUAUUACGAGUA	-0.623 ± 0.13	-1.64 ± 0.16
AAGAAGCAAUAUUACGACGG	-1.15 ± 0.14	-1.52 ± 0.078
UUCCAGCAAUAUUACGAUGG	–	-2.91 ± 0.24
UAGGAGCAAUAUUACGAUUA	0.31 ± 0.094	-0.679 ± 0.065
